Reference: patent publication US20260265403A1 (TJ BIOPHARMA SHANGHAI, published 2026)

T1: human CD24 on cells (human, UniProt P25063 27-59)
T1 chain (looked up): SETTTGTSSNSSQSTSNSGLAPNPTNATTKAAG


Target: T1, human CD24 on cells
Assay: cell-based or functional assay

| EC50 of Phagocytosis assay, IgG1, Kappa; HEK293-CD24 [µg/mL] | EC50 of Phagocytosis assay, IgG1, Kappa; MCF-7 [µg/mL] | EC50 of Phagocytosis assay, IgG1, Kappa; NALM6 [µg/mL] | EC50 of Phagocytosis assay, IgG1, Kappa; OVCAR3 [µg/mL] | EC50 of Phagocytosis assay, IgG4, Kappa; HEK293-CD24 [µg/mL] | EC50 of Phagocytosis assay, IgG4, Kappa; MCF-7 [µg/mL] | EC50 of Phagocytosis assay, IgG4, Kappa; NALM6 [µg/mL] | EC50 of Phagocytosis assay, IgG4, Kappa; OVCAR3 [µg/mL] | Binder |
| --- | --- | --- | --- | --- | --- | --- | --- | --- |
| 0.39 | 0.57 | 0.46 | 2.23 |  |  |  |  | 80-F10A6, IgG1, Kappa (antibody, V domains shown) VH: EVQLQQSGPVLVNPGASVKISCKASGYSFTGYYMNWVKQSPEKSLEWIGEVNPITGDTTYSQNFKAKTTLTVDRSSSTAYMQLKSLTSEDSAVYYCTRRDYGTSLDYWGQGTTLTVSS VL: DVQITQSPSYLAASPGETITIHCRASKSISRYLAWYQEKPGKINTLLIYAGSTLHLGIPSRFSGSGSGTDFTLTISSLELEDFAMYYCQQHNEYPITFGAGTKLELK |
|  |  |  |  | 2.78 | 1.94 | 1.31 | 0.86 | 90-D11B6, IgG4, Kappa (antibody, V domains shown) VH: EVQLQQSGPELVKPGASVRISCKASGYSFTGYYMNWVKQSPEKNLEWIGEINPITGGSTYNQKFVAKATLTVDRSSSTAYMQLKSLTSEDSAVYYCTRRDYDTSLDYWGQGTTLTVSS VL: DVQITQSPSYLAASPGETITINCRASKSISKYLAWYQEKPGKTIKLLIYAGSTLQSGIPSRFSGSGYGTDFTLTISSLEPEDFAMYYCQQHNEYPLTFGAGTKLELK |
| 1.31 | 1 | 1.19 | 0.59 |  |  |  |  | 90-D11B6, IgG1, Kappa (antibody, V domains shown) VH: EVQLQQSGPELVKPGASVRISCKASGYSFTGYYMNWVKQSPEKNLEWIGEINPITGGSTYNQKFVAKATLTVDRSSSTAYMQLKSLTSEDSAVYYCTRRDYDTSLDYWGQGTTLTVSS VL: DVQITQSPSYLAASPGETITINCRASKSISKYLAWYQEKPGKTIKLLIYAGSTLQSGIPSRFSGSGYGTDFTLTISSLEPEDFAMYYCQQHNEYPLTFGAGTKLELK |
| 7.02 | 1.06 | 1.91 | 0.56 |  |  |  |  | 63-B10B9, IgG1, Kappa (antibody, V domains shown) VH: EVQLQQSGPELVKPGASVKISCKASGYSFTGYYMNWVKQSPEKSLEWIGEINPITGGTTYNQKFRAKATLTVDRSSSTAYMQLKSLTSEDSAVYYCTKRDYDTSLDYWGQGTTLIVSS VL: DVQITQSPSYLAAFPGETITINCRASKSIKKYLAWYQEKPGKTNNLLIYSGSTLQSGIPSRFSGSGTGTDFTLTISSLEPEDFAMYYCQQHNEYPLTFGAGTKLELK |
|  |  |  |  | 1.14 | 17.1 | 6.16 | 9.85 | 63-B10B9, IgG4, Kappa (antibody, V domains shown) VH: EVQLQQSGPELVKPGASVKISCKASGYSFTGYYMNWVKQSPEKSLEWIGEINPITGGTTYNQKFRAKATLTVDRSSSTAYMQLKSLTSEDSAVYYCTKRDYDTSLDYWGQGTTLIVSS VL: DVQITQSPSYLAAFPGETITINCRASKSIKKYLAWYQEKPGKTNNLLIYSGSTLQSGIPSRFSGSGTGTDFTLTISSLEPEDFAMYYCQQHNEYPLTFGAGTKLELK |
| 0.42 | 0.45 | 0.22 | 8.46 |  |  |  |  | 67-H2E7, IgG1, Kappa (antibody, V domains shown) VH: EVQLQQSGPELVKPGASVKISCKASGYEFTGYHMNWVKQSPEKSLEWIGEINPITSDKTFNQKFKAKATLTVDRSSTTAYMHLKSLTSEDSAVYYCARRDYDTSLDYWGQGTTLTVSS VL: DVQITQSPSYLAASPGETITIYCRASKSISKYLAWYQEKPEKTNRLLIYAGSTLQSGIPSRFRGSGSGKDFTLTVSGLEPEDFAMYYCQQHNEYPLTFGAGTKLDLK |
|  |  |  |  | 0.58 | 1.42 | 0.72 | 0.42 | 79-E3H3, IgG4, Kappa (antibody, V domains shown) VH: EVQLQQSGPELVKPGASVKISCKASGYEFTGYHMNWVKQSPEKSLEWIGEINPITSDKTFNQKFKAKATLTVDRSSSTAYMHLKSLTSEDSAVYYCARRDYDTSLDYWGQGTTLTVSS VL: DVQITQSPSYLAASPGETITIYCRASKSISKYLAWYQEKPEKTNRLLIYAGSTLQSGIPSRFRGSGSGKDFTLTVSGLEPEDFAMYYCQQHNEYPLTFGAGTKLELK |
| 6.76 | 0.42 | 0.32 | 0.13 |  |  |  |  | 85-D5A10 (4434), IgG1, Kappa (antibody, V domains shown) VH: EVQLQQSGPELVKPGASVKISCKASGYEFTGYHMNWVKQSPEKSLEWIGEINPITSDKTFNQKFKAKATLTVDRSSSTAYMHLKSLTSDDSAVYYCARRDYGTSLDYWGQGTTLTVSS VL: DVQITQSPSYLAASPGETITIYCRASKSISKYLAWYQEKPEKTIRLLIYAGSTLQSGIPSRFRGSGSGKDFTLTVSGLEPEDFAMYYCQQHNEYPITFGAGTKLELI |
| 0.2 | 0.33 | 0.23 | 0.15 |  |  |  |  | 89-E8C12 (4428), IgG1, Kappa (antibody, V domains shown) VH: EVQLQQSGPELVKPGASVKISCKASGYDFTGYYMNWMKQSPEKSLEWIGEINPITSHNTFNQKFKAKATLTVDRSSSTAYMHLKSLTSEDSAVYYCARRDYGTSLDYWGQGTTLTVSS VL: DVQITQSPSYLAASPGETITIYCRASKSISKYLAWYQEKPEKTIRLLIYAGSTLQSGIPSRFRGSGSGTDFTLTVSGLEPEDFAMYYCQQHNEYPLTFGAGTKLELK |
| 0.19 | 0.52 | 0.49 | 0.44 |  |  |  |  | 79-E3H3, IgG1, Kappa (antibody, V domains shown) VH: EVQLQQSGPELVKPGASVKISCKASGYEFTGYHMNWVKQSPEKSLEWIGEINPITSDKTFNQKFKAKATLTVDRSSSTAYMHLKSLTSEDSAVYYCARRDYDTSLDYWGQGTTLTVSS VL: DVQITQSPSYLAASPGETITIYCRASKSISKYLAWYQEKPEKTNRLLIYAGSTLQSGIPSRFRGSGSGKDFTLTVSGLEPEDFAMYYCQQHNEYPLTFGAGTKLELK |
|  |  |  |  | 0.51 | 1.28 | 0.68 | 0.71 | 67-H2E7, IgG4, Kappa (antibody, V domains shown) VH: EVQLQQSGPELVKPGASVKISCKASGYEFTGYHMNWVKQSPEKSLEWIGEINPITSDKTFNQKFKAKATLTVDRSSTTAYMHLKSLTSEDSAVYYCARRDYDTSLDYWGQGTTLTVSS VL: DVQITQSPSYLAASPGETITIYCRASKSISKYLAWYQEKPEKTNRLLIYAGSTLQSGIPSRFRGSGSGKDFTLTVSGLEPEDFAMYYCQQHNEYPLTFGAGTKLDLK |
|  |  |  |  | 0.9 | 7 | 5.36 | 3.35 | 45-H1E4, IgG4, Kappa (antibody, V domains shown) VH: QIQLVQSGPELKKPGETVKISCKASGYTFTTYGMSWMKQAPGKGLKWMGWINTYSGVPAYADDFKGRFAFSLDTSASTAYLQINNLKNEDTATYFCARSGYPWSPHSYSTDYWGQGISVTVSS VL: DVLLTQTPLSLPVSLGDQASISCKSSQSIVHSNGNTYLEWYLQKPGQSPKRLIYKVSNRFSGVPDRFSGSGSGTDFTLKISRVEAEDLGVYYCFQGSHVPWTFGGGTKLEIK |
|  |  |  |  | 0.4 | 2.44 | 1.62 | 0.27 | 76-F8C6, IgG4, Kappa (antibody, V domains shown) VH: EVKLEESGGGLVQPGGSMKLSCVASGFTFTNSWMNWVRQSPERGLDWVAQIQLKSDNYATRYVESVKGRFTISRDDSKNSVYLQMNNLRAEDTGIYYCTTGTDYWSQGTTLTVSS VL: not shown |
|  |  |  |  | 3.09 | 2.26 | 6.28 | 5.77 | 66-D1B10, IgG4, Kappa (antibody, V domains shown) VH: EVRLEESGGGFVQPGGSMKLSCVASGLTFPNHWMNWVRQSPERGLAWVAQIQLKSDNYATRYVESVKGRFTISRDDSESTVYLQMNNLRAEDTGIYYCTTGTDYWGQGTTLTVSS VL: not shown |
|  |  |  |  | 0.4 | 0.76 | 0.84 | 0.24 | 75-H8B9, IgG4, Kappa (antibody, V domains shown) VH: EVNLEESGGGLVQPGGSRQLSCVASGLTFSKHWMNWVRQSPDKGLEWVAQIQLKSDNYAIRYVDSVKGRFTISRDDSENTVYLQMNNLRAEDTGIYYCTTGTDYWGQGTTLTVSS VL: not shown |
| 0.08 | 0.44 | 1.16 | 0.14 |  |  |  |  | 75-H8B9, IgG1, Kappa (antibody, V domains shown) VH: EVNLEESGGGLVQPGGSRQLSCVASGLTFSKHWMNWVRQSPDKGLEWVAQIQLKSDNYAIRYVDSVKGRFTISRDDSENTVYLQMNNLRAEDTGIYYCTTGTDYWGQGTTLTVSS VL: not shown |
|  |  |  |  | 2.08 | 0.19 | 6.57 | 1.26 | 59-G9D7, IgG4, Kappa (antibody, V domains shown) VH: QVQLQQPGADLVKPGASVKLSCKASGYTVTTYWMHWVRQRPGRGLEWIGRIDPNSGETKYSEKFKNKATLTVDRPSSTAYMQLSSLTFEDSAVYFCAIYYYLNNFLFDYWGQGTTLTVSS VL: ENVLTQSPAIMSASPGEKVTMTCRASSSVSSSYLHWYQKKSGASPKLWIYSTSNLASGVPARFSGSGSGTSYSLTISSVEAEDAATYYCQQYSGYPLTFGAGTKLELK |
|  |  |  |  | 10.5 | 0.21 | 0.01 | 1.41 | 62-F7E9, IgG4, Kappa (antibody, V domains shown) VH: QVQLQQPGAELVKPGASVKLSCKASGYTSTSYWLHWVKQRPGRGLEWIGRIDPNSGETKFNEKFKSQATLTVDKPSSTAYMQLNSLTSEDSAVYYCALYYYGSILFDYWGQGTTLTVSS VL: ENVLTQSPAIMSASPGEKVTMTCRTSSIISSGFLHWYQQKSGASPKLWIYSTSNLASGVPARFSGSGSGTSYSLTISSVEAEDAATYYCQQYSGHPLTFGAGTKLELK |
